The target in one test is T1, FcγRIIaH (human, UniProt P12318).
T1 chain: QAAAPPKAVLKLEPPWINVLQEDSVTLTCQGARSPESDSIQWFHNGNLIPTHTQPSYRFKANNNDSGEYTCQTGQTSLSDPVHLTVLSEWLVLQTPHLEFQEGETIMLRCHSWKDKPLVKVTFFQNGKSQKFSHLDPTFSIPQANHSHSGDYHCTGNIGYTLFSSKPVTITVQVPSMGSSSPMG
In words: SPR. In general terms: SPR reads the build-up and loss of mass on a sensor chip optically.

The target in another test is T2, FcγRIa (human, UniProt P12314).
T2 chain: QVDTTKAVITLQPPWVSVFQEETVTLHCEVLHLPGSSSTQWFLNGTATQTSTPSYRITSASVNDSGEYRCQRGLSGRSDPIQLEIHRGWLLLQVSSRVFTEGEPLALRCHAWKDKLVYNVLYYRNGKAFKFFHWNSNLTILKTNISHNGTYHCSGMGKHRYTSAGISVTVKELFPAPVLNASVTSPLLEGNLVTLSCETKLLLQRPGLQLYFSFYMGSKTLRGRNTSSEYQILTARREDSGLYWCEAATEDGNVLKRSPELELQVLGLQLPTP
Description: SPR.

Experimental findings from patent publication US20190185557 (published 2019) are described below.

B1: IL6R-BP507/IL6R-L (antibody)
chain 1: QVQLQESGPGLVKPSETLSLTCAVSGHSISHDHAWSWVRQPPGEGLEWIGFISYSGITNYNPSLQGRVTISRDNSKNTLYLQMNSLRAEDTAVYYCARSLARTTAMDYWGEGTLVTVSSASTKGPSVFPLAPSSKSTSGGTAALGCLVKDYFPEPVTVSWNSGALTSGVHTFPAVLQSSGLYSLSSVVTVPSSSLGTQTYICNVNHKPSNTKVDKKVEPKSCDKTHTCPPCPAPDLLGDDSVFLFPPKPKDTLMISRTPEVTCVVIDVAEEDGPVKFNWYVDGVEVHNAKTKPREEQYNSTYRVVSVLTVLHQDWLNGKEYKCKVSNKALPRPIEKTISKAKGQPREPQVYTLPPSRDELTKNQVSLTCLVKGFYPSDIAVEWESNGQPENNYKTTPPVLDSDGSFFLYSKLTVDKSRWQQGNVFSCSVMHEALHNHYTQESLSLSP
chain 2: not shown
With B1, in the test with FcγRIIaH, the Kd (usually the equilibrium constant for the complex coming apart) turned out to be 1800 nM.

B2: IL6R-BP490/IL6R-L (antibody)
chain 1: QVQLQESGPGLVKPSETLSLTCAVSGHSISHDHAWSWVRQPPGEGLEWIGFISYSGITNYNPSLQGRVTISRDNSKNTLYLQMNSLRAEDTAVYYCARSLARTTAMDYWGEGTLVTVSSASTKGPSVFPLAPSSKSTSGGTAALGCLVKDYFPEPVTVSWNSGALTSGVHTFPAVLQSSGLYSLSSVVTVPSSSLGTQTYICNVNHKPSNTKVDKKVEPKSCDKTHTCPPCPAPELLGDDSVFLFPPKPKDTLMISRTPEVTCVVIDVAEEDGEVKFNWYVDGVEVHNAKTKPREEQYNSTYRVVSVLTVLHQDWLNGKEYKCKVSNKALPRPIEKTISKAKGQPREPQVYTLPPSRDELTKNQVSLTCLVKGFYPSDIAVEWESNGQPENNYKTTPPVLDSDGSFFLYSKLTVDKSRWQQGNVFSCSVMHEALHNHYTQESLSLSP
chain 2: not shown
As to B2, in the test with FcγRIIaH, the affinity, expressed as Kd, was 2400 nM.

B3: IL6R-BP445/IL6R-L (antibody)
chain 1: QVQLQESGPGLVKPSETLSLTCAVSGHSISHDHAWSWVRQPPGEGLEWIGFISYSGITNYNPSLQGRVTISRDNSKNTLYLQMNSLRAEDTAVYYCARSLARTTAMDYWGEGTLVTVSSASTKGPSVFPLAPSSKSTSGGTAALGCLVKDYFPEPVTVSWNSGALTSGVHTFPAVLQSSGLYSLSSVVTVPSSSLGTQTYICNVNHKPSNTKVDKKVEPKSCDKTHTCPPCPAPDLLGDDSVFLFPPKPKDTLMISRTPEVTCVVIDVAEEDGEVKFNWYVDGVEVHNAKTKPREEQYNSTYRVVSVLTVLHQDWLNGKEYKCKVSNKALPRPIEKTISKAKGQPREPQVYTLPPSRDELTKNQVSLTCLVKGFYPSDIAVEWESNGQPENNYKTTPPVLDSDGSFFLYSKLTVDKSRWQQGNVFSCSVMHEALHNHYTQESLSLSP
chain 2: not shown
In the case of B3, the dissociation constant (Kd) with FcγRIIaH was found to be 1500 nM.

B4: IL6R-BP506/IL6R-L (antibody)
chain 1: QVQLQESGPGLVKPSETLSLTCAVSGHSISHDHAWSWVRQPPGEGLEWIGFISYSGITNYNPSLQGRVTISRDNSKNTLYLQMNSLRAEDTAVYYCARSLARTTAMDYWGEGTLVTVSSASTKGPSVFPLAPSSKSTSGGTAALGCLVKDYFPEPVTVSWNSGALTSGVHTFPAVLQSSGLYSLSSVVTVPSSSLGTQTYICNVNHKPSNTKVDKKVEPKSCDKTHTCPPCPAPDLLGDDSVFLFPPKPKDTLMISRTPEVTCVVIDVAEEDGPVKFNWYVDGVEVHNAKTKPREEQDNSTYRVVSVLTVLHQDWLNGKEYKCKVSNKALPRPIEKTISKAKGQPREPQVYTLPPSRDELTKNQVSLTCLVKGFYPSDIAVEWESNGQPENNYKTTPPVLDSDGSFFLYSKLTVDKSRWQQGNVFSCSVMHEALHNHYTQESLSLSP
chain 2: not shown
In the test with FcγRIIaH, B4 registered an equilibrium dissociation constant (Kd) of 2500 nM.

B5: IL6R-BP480/IL6R-L (antibody)
chain 1: QVQLQESGPGLVKPSETLSLTCAVSGHSISHDHAWSWVRQPPGEGLEWIGFISYSGITNYNPSLQGRVTISRDNSKNTLYLQMNSLRAEDTAVYYCARSLARTTAMDYWGEGTLVTVSSASTKGPSVFPLAPSSKSTSGGTAALGCLVKDYFPEPVTVSWNSGALTSGVHTFPAVLQSSGLYSLSSVVTVPSSSLGTQTYICNVNHKPSNTKVDKKVEPKSCDKTHTCPPCPAPDLLGDDSVFLFPPKPKDTLMISRTPEVTCVVVDLSEDDGEVKFNWYVDGVEVHNAKTKPREEQYNSTYRVVSVLTVLHQDWLNGKEYKCKVSNKALPAPIEKTISKAKGQPREPQVYTLPPSRDELTKNQVSLTCLVKGFYPSDIAVEWESNGQPENNYKTTPPVLDSDGSFFLYSKLTVDKSRWQQGNVFSCSVMHEALHNHYTQESLSLSP
chain 2: not shown
Turning to B5, the affinity with FcγRIa, expressed as Kd, was 13 nM.
